Experimental data: patent JP2018076351A (dated 2018)

Assays:
[1] = target: human PCSK9 (wild type) (human); experiment: Biacore at pH 6.0 (HBS-P with 0.01 % BSA); KD from nonlinear regression of competition curves, n=1
[2] = target: human PCSK9 (wild type) (human); experiment: KinExA, solution equilibrium, PCSK9-coated beads
[3] = target: cynomolgus monkey PCSK9 (cynomolgus monkey, UniProt A0A7N9D9N8 150-747); experiment: KinExA, solution equilibrium, PCSK9-coated beads; KD adjusted for 50 % active cPCSK9

Kd [1] [nM]	Kd [2] [nM]	Kd [3] [nM]	Binder
0.0125	0.003	0.002	31H4 (antibody, V domains shown) VH: EVQLVESGGGLVKPGGSLRLSCAASGFTFSSYSMNWVRQAPGKGLEWVSSISSSSSYISYADSVKGRFTISRDNAKNSLYLQMNSLRAEDTAVYFCARDYDFWSAYYDAFDVWGQGTMVTVSS VL: QSVLTQPPSVSGAPGQRVTISCTGSSSNIGAGYDVHWYQQLPGTAPKLLISGNSNRPSGVPDRFSGSKSGTSASLAITGLQAEDEADYYCQSYDSSLSGSVFGGGTKLTVLQ
0.029	0.015	0.016	16F12 (antibody, V domains shown) VH: QVHLVESGGGVVQPGRSLRLSCAASGFTFNSFGMHWVRQAPGKGLEWVALIWSDGSDEYYADSVKGRFTISRDNSKNTLYLQMNSLRAEDTAVYYCARAIAALYYYYGMDVWGQGTTVTVSS VL: QSVLTQPPSVSAAPGQKVTISCSGSSSNIGNNFVSWYQQLPGTAPKLLIYDYNKRPSGIPDRFSGSKSGTSATLGITGLQTGDEADYYCGTWDSSLSAYVFGTGTRVTVLQ
